Experimental data: publication PMC4948871, “The Molecular Mechanism of Ethylene-Mediated Root Hair Development Induced by Phosphate Starvation”

T1: GST-EIN3(141-352) (Arabidopsis thaliana, UniProt O24606 141-352)
T1 sequence: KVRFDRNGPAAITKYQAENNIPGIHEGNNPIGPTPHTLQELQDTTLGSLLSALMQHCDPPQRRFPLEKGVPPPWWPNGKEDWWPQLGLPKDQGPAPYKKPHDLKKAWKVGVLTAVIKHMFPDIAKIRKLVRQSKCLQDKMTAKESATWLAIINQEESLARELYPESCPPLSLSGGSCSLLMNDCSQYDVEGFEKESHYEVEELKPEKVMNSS

B1: RHS19-P1 (dsDNA)
DNA 1: TCTGCACGAATGTCACTCTGCACGAATGTCACTCTGCACGAATGTCACTCTGCACGAATGTCAC
DNA 2: GTGACATTCGTGCAGAGTGACATTCGTGCAGAGTGACATTCGTGCAGAGTGACATTCGTGCAGA
B2: RHS15-P2 (dsDNA)
DNA 1: GACAAATGAATTCGGAGACAAATGAATTCGGAGACAAATGAATTCGGAGACAAATGAATTCGGA
DNA 2: TCCGAATTCATTTGTCTCCGAATTCATTTGTCTCCGAATTCATTTGTCTCCGAATTCATTTGTC
B3: EXT14-P2 (dsDNA)
DNA 1: TGCATATGAATTAACATGCATATGAATTAACATGCATATGAATTAACATGCATATGAATTAACA
DNA 2: TGTTAATTCATATGCATGTTAATTCATATGCATGTTAATTCATATGCATGTTAATTCATATGCA
B4: PRP1-P4 (dsDNA)
DNA 1: AACAGATGAACGACATAACAGATGAACGACATAACAGATGAACGACATAACAGATGAACGACAT
DNA 2: ATGTCGTTCATCTGTTATGTCGTTCATCTGTTATGTCGTTCATCTGTTATGTCGTTCATCTGTT

Molecular target: T1, GST-EIN3(141-352)
Experiment: EMSA; competed by 500x unlabelled probe; 25 mM HEPES-KOH pH 7.5, 100 mM KCl, 0.1 mM EDTA, 10% glycerol, 1 mM DTT, 1 ug poly(dI-dC), 0.1 ug protein in 20 uL, room temperature 30 min; 5.5% PAGE in 0.5x TBE
Details: protein: recombinant; tags: GST (pGEX-6p-1); chain copies: 2; label: biotin; blunt

Row | Binder | binding result
1 | B1 | binds
2 | B2 | binds
3 | B3 | binds
4 | B4 | binds
